Source: PMC12775136, “Mechanistic insights into recruitment and regulation of the RNA helicase UPF1 in replication-dependent histone mRNA decay” (Nature Communications, 2025)
Values belong to the binder of their own block, whether it stands above or below them.

Assays:
3′hExofl = target: T1, 3′hExofl (human, UniProt Q8IV48 1-349); assay: NMR titration; 1H-15N HSQC of 15N-labelled UPF2-AL or UPF2-ALm with stepwise addition of unlabelled 3′hExo proteins; 298 K; 20 mM HEPES pH 7.0, 100 mM NaCl, 2 mM DTT; KD from twelve amide peaks, one-to-one binding isotherm; conditions: both partners purified
T1 construct: human 3′hExo (ERI1), full length; Modified pET28a, N-terminal 6x His-tag followed by an HRV-3C site; also called ERI1; full-length 3′hExo; source: E. coli BL21 Star (DE3) pRARE, purified (Ni-NTA, heparin, SEC)
T1 sequence (looked up): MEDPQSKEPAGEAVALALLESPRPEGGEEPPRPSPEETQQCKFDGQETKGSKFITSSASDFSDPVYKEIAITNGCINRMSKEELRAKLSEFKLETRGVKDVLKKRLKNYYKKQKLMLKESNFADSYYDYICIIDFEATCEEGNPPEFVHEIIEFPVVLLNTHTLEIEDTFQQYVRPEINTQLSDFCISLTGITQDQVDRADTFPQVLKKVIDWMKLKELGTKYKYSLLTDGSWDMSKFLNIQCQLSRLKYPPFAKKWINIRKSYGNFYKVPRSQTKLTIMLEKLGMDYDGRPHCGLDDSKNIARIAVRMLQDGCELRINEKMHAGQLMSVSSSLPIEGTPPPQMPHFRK

[1] = target: T2, 3′hExo as used in surface plasmon resonance (human, UniProt Q8IV48 1-349); assay: SPR; format not told in the text shown; conditions: both partners purified
T2 construct: human 3′hExo (ERI1); Likely 3′hExofl
T2 sequence (looked up): T1 sequence (looked up)

Kd (3′hExofl): ~200 µM
B1: UPF2-ALm (residues 1024–1085) (domain or fragment, human, UniProt Q9HAU5 1024-1085, looked up)
chain: TEGENLEEDEEEEEGGAETEEQSGNESEVNEPEEEEGSDNDDDEGEEEEEENTDYLTDSNKE
notes: human UPF2, residues 1024–1085 of the acidic linker; source: E. coli, purified; 15N-labelled

Kd [1]: ~170 µM
B2: UPF2 as used in surface plasmon resonance (domain or fragment)
chain: KKKTEGENLEEDEEEEEGGAETEEQSGNESEVNEPEEEEGSDNDDDEGEEEEEENTDYLTDSNKE
modifications: not fully specified; numbers in words are those of the source; also: modified acidic linker UPF2-ALm, further changes not given here
